We go through one substance from paper doi:10.1101/2023.10.13.562161.

The target of this assay is VanX^C78/157S. Briefly: SEC.

A word on the stoichiometry N: it is a count of units in the complex or per binding partner. The substance VanX^C78/157S (enzyme) had a stoichiometry N of 2.
